According to patent US20140087995A1 (published 2014):
Numbered stars: 1 amine (or outer) side, 2 acyl side, 3 side chain; on linkers, the order of the positions; unused ones are H or OH. Bridge positions count the residues as written; N and C are the ends. Square brackets hold non-standard residues; d marks the D form. Side chains are listed from the residue outwards. Ends that are not written are not given here. * marks the point of attachment. C20 diacid = O=C(O)CCCCCCCCCCCCCCCCCCC(=O)*; γGlu = O=C(O)[C@H](CCC(=O)[*:2])N[*:1]

T1: human amylin receptor (amylin 3(a) receptor: human calcitonin receptor with RAMP-3) (human, UniProt P30988 25-474; O60896 24-148, limits assumed)
T1 construct: whole, on cells; Whole cells in the luciferase assay (Assay II a); also called hAmylin-R; hAmylinR
T1 sequence (looked up) 1: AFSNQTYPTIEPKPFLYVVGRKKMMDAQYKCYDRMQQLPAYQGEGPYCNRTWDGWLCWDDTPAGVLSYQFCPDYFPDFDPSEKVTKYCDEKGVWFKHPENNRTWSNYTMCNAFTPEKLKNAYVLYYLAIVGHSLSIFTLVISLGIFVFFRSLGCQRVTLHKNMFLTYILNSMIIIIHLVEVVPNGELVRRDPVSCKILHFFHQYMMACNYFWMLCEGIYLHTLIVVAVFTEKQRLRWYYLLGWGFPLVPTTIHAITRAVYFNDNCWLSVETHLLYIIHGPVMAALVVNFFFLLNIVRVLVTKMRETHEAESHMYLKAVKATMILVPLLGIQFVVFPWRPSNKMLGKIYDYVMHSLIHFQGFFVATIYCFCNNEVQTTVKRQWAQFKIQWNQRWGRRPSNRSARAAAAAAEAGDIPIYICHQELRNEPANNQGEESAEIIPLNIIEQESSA
T1 sequence (looked up) 2: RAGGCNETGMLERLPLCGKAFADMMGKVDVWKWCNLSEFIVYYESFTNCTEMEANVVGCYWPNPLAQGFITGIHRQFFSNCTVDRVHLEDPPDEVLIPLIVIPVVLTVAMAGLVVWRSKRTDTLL

T2: human calcitonin receptor (human, UniProt P30988 25-474)
T2 sequence (looked up): T1 sequence (looked up) 1

T3: human calcitonin receptor (human, UniProt P30988 25-474)
T3 sequence (looked up): T1 sequence (looked up) 1

T4: human amylin receptor (amylin 3(a) receptor: human calcitonin receptor with RAMP-3) (human, UniProt P30988 25-474; O60896 24-148, limits assumed)
T4 sequence (looked up) 1: T1 sequence (looked up) 1
T4 sequence (looked up) 2: T1 sequence (looked up) 2

B1: N^ε1-[(4S)-4-carboxy-4-[[(4S)-4-carboxy-4-(19-carboxynonadecanoylamino)butanoyl]amino]butanoyl]-[D-Asp14,Arg17,Pro21,Pro27,Arg35]-h-amylin (peptide)
peptide: K([γGlu-γGlu-C20 diacid])CNTATCATQRLA[dD]FLRHSSPNFGAIPSSTNVGSRTY-NH2
modifications: disulfide 2-7; N-terminus assumed
SMILES: CC[C@H](C)[C@H](NC(=O)[C@H](C)NC(=O)CNC(=O)[C@H](Cc1ccccc1)NC(=O)[C@H](CC(N)=O)NC(=O)[C@@H]1CCCN1C(=O)[C@H](CO)NC(=O)[C@H](CO)NC(=O)[C@H](Cc1c[nH]cn1)NC(=O)[C@H](CCCNC(=N)N)NC(=O)[C@H](CC(C)C)NC(=O)[C@H](Cc1ccccc1)NC(=O)[C@@H](CC(=O)O)NC(=O)[C@H](C)NC(=O)[C@H](CC(C)C)NC(=O)[C@H](CCCNC(=N)N)NC(=O)[C@H](CCC(N)=O)NC(=O)[C@@H](NC(=O)[C@H](C)NC(=O)[C@@H]1CSSC[C@H](NC(=O)[C@@H](N)CCCCNC(=O)CC[C@H](NC(=O)CC[C@H](NC(=O)CCCCCCCCCCCCCCCCCCC(=O)O)C(=O)O)C(=O)O)C(=O)N[C@@H](CC(N)=O)C(=O)N[C@@H]([C@@H](C)O)C(=O)N[C@@H](C)C(=O)N[C@@H]([C@@H](C)O)C(=O)N1)[C@@H](C)O)C(=O)N1CCC[C@H]1C(=O)N[C@@H](CO)C(=O)N[C@@H](CO)C(=O)N[C@H](C(=O)N[C@@H](CC(N)=O)C(=O)N[C@H](C(=O)NCC(=O)N[C@@H](CO)C(=O)N[C@@H](CCCNC(=N)N)C(=O)N[C@H](C(=O)N[C@@H](Cc1ccc(O)cc1)C(N)=O)[C@@H](C)O)C(C)C)[C@@H](C)O
B2: N^ε1-[(4S)-4-carboxy-4-[[(4S)-4-carboxy-4-(19-carboxynonadecanoylamino)butanoyl]amino]butanoyl]-[Glu14,Arg17,Pro21,Pro27,Pro34,Arg35]-h-amylin (peptide)
peptide: K([γGlu-γGlu-C20 diacid])CNTATCATQRLAEFLRHSSPNFGAIPSSTNVGPRTY-NH2
modifications: disulfide 2-7; N-terminus assumed
SMILES: CC[C@H](C)[C@H](NC(=O)[C@H](C)NC(=O)CNC(=O)[C@H](Cc1ccccc1)NC(=O)[C@H](CC(N)=O)NC(=O)[C@@H]1CCCN1C(=O)[C@H](CO)NC(=O)[C@H](CO)NC(=O)[C@H](Cc1c[nH]cn1)NC(=O)[C@H](CCCNC(=N)N)NC(=O)[C@H](CC(C)C)NC(=O)[C@H](Cc1ccccc1)NC(=O)[C@H](CCC(=O)O)NC(=O)[C@H](C)NC(=O)[C@H](CC(C)C)NC(=O)[C@H](CCCNC(=N)N)NC(=O)[C@H](CCC(N)=O)NC(=O)[C@@H](NC(=O)[C@H](C)NC(=O)[C@@H]1CSSC[C@H](NC(=O)[C@@H](N)CCCCNC(=O)CC[C@H](NC(=O)CC[C@H](NC(=O)CCCCCCCCCCCCCCCCCCC(=O)O)C(=O)O)C(=O)O)C(=O)N[C@@H](CC(N)=O)C(=O)N[C@@H]([C@@H](C)O)C(=O)N[C@@H](C)C(=O)N[C@@H]([C@@H](C)O)C(=O)N1)[C@@H](C)O)C(=O)N1CCC[C@H]1C(=O)N[C@@H](CO)C(=O)N[C@@H](CO)C(=O)N[C@H](C(=O)N[C@@H](CC(N)=O)C(=O)N[C@H](C(=O)NCC(=O)N1CCC[C@H]1C(=O)N[C@@H](CCCNC(=N)N)C(=O)N[C@H](C(=O)N[C@@H](Cc1ccc(O)cc1)C(N)=O)[C@@H](C)O)C(C)C)[C@@H](C)O
notes: also called compound 110
B3: N^ε1-[(4S)-4-carboxy-4-[[(4S)-4-carboxy-4-(19-carboxynonadecanoylamino)butanoyl]amino]butanoyl]-[Glu14,Arg17,Pro21,Pro27,Arg35]-h-amylin (peptide)
peptide: K([γGlu-γGlu-C20 diacid])CNTATCATQRLAEFLRHSSPNFGAIPSSTNVGSRTY-NH2
modifications: disulfide 2-7; N-terminus assumed
SMILES: CC[C@H](C)[C@H](NC(=O)[C@H](C)NC(=O)CNC(=O)[C@H](Cc1ccccc1)NC(=O)[C@H](CC(N)=O)NC(=O)[C@@H]1CCCN1C(=O)[C@H](CO)NC(=O)[C@H](CO)NC(=O)[C@H](Cc1c[nH]cn1)NC(=O)[C@H](CCCNC(=N)N)NC(=O)[C@H](CC(C)C)NC(=O)[C@H](Cc1ccccc1)NC(=O)[C@H](CCC(=O)O)NC(=O)[C@H](C)NC(=O)[C@H](CC(C)C)NC(=O)[C@H](CCCNC(=N)N)NC(=O)[C@H](CCC(N)=O)NC(=O)[C@@H](NC(=O)[C@H](C)NC(=O)[C@@H]1CSSC[C@H](NC(=O)[C@@H](N)CCCCNC(=O)CC[C@H](NC(=O)CC[C@H](NC(=O)CCCCCCCCCCCCCCCCCCC(=O)O)C(=O)O)C(=O)O)C(=O)N[C@@H](CC(N)=O)C(=O)N[C@@H]([C@@H](C)O)C(=O)N[C@@H](C)C(=O)N[C@@H]([C@@H](C)O)C(=O)N1)[C@@H](C)O)C(=O)N1CCC[C@H]1C(=O)N[C@@H](CO)C(=O)N[C@@H](CO)C(=O)N[C@H](C(=O)N[C@@H](CC(N)=O)C(=O)N[C@H](C(=O)NCC(=O)N[C@@H](CO)C(=O)N[C@@H](CCCNC(=N)N)C(=O)N[C@H](C(=O)N[C@@H](Cc1ccc(O)cc1)C(N)=O)[C@@H](C)O)C(C)C)[C@@H](C)O
notes: also called compound 89

What follows are binders tested against T1, human amylin receptor (amylin 3(a) …) (assay: SPA competition binding on membranes of BHK cells with human calcitonin receptor + RAMP-3; displacement of 125I-rat amylin (Assay V)).
Outline: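 Membranes from BHK Amylin 3(a)/CRE-luc cells (35 ng/μL final) were mixed with SPA beads and test compounds in 50 mM Hepes pH 7.4 with 1 mM CaCl2, 5 mM MgCl₂, 0.1% OA and 0.02% Tween20. Incubation ran 120 min at 25° C with shaking; IC₅₀ came from one-site competition fitting.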

Binder | IC50 [nM]
B1 | 0.365
B2 | 0.326
B3 | 1.16

What follows are binders tested against T2, human calcitonin receptor (assay: cell-based or functional assay).

Binder | hCTR funct. EC50 (pM) | Ratio hCT/hAmylin funct. [ratio]
B1 | 100000 | 
B2 | 8160 | 29.3
B3 | 11200 | 27.8

These binders were tested against T3, human calcitonin receptor (assay: cell-based or functional assay).

Binder | hCTR funct. EC50 (pM)
K([γGlu-γGlu-C20 diacid])CNTATCATQRLADFLRHSSPNFGAIPSSTNVGPETY-NH2 (disulfide 2-7 (inferred)) | 843
K([γGlu-γGlu-C20 diacid])CNTATCATQRLAEFLRHSSPNFGAIPSSTNVGPETP-NH2 (disulfide 2-7 (inferred)) | 102
K([γGlu-C20 diacid])CNTATCATQRLAEFLRHSSPNFGAIPSSTNVGPHTY-NH2 (disulfide 2-7 (inferred)) | 1450
K([γGlu-γGlu-C20 diacid])CNTATCATQRLA[dD]FLRHSSPNFGAIPSSTNVGSRTY-NH2 (disulfide 2-7 (inferred)) | 100000
K([γGlu-C20 diacid])CNTATCATQRLADFLRHSSPNFGAIPSSTNVGPRTY-NH2 (disulfide 2-7 (inferred)) | 3640
K([γGlu-γGlu-C20 diacid])CNTATCATQRLAEFLRHSSPNFGAIPSSTNVGPNTF-NH2 (disulfide 2-7 (inferred)) | 2140
K([γGlu-γGlu-C20 diacid])CNTATCATQRLADFLRHSSPNFGAIPSSTNVGPRTY-NH2 (disulfide 2-7 (inferred), also called compound 130) | 7280
K([γGlu-γGlu-C20 diacid])CNTATCATQRLAEFLRHSSPNFGAIPSSTNVGPHTY-NH2 (disulfide 2-7 (inferred)) | 2830
K([γGlu-γGlu-C20 diacid])CNTATCATQRLAEFLRHSSPNFGAILSSTPVGPETY-NH2 (disulfide 2-7 (inferred)) | 1280
K([γGlu-γGlu-C20 diacid])CNTATCATQRLAEFLRHSSNNPGAILSSTNVGPETY-NH2 (disulfide 2-7 (inferred)) | 89600
K([γGlu-C20 diacid])CNTATCATQRLAEFLRHSSPNFGAIPSSTNVGSHTY-NH2 (disulfide 2-7 (inferred)) | 5580
K([γGlu-γGlu-C20 diacid])CNTATCATQRLANFLRHSSPNFGAIPSSTPVGPRTY-NH2 (disulfide 2-7 (inferred)) | 8660

The binders below were run against T4, human amylin receptor (amylin 3(a) …) (assay: cell-based or functional assay).

Binder | Ratio hCT/hAmylin funct. | hAmylin-R funct. EC50 (pM)
K([γGlu-γGlu-C20 diacid])CNTATCATQRLADFLRHSSPNFGAIPSSTNVGPETY-NH2 (disulfide 2-7 (inferred)) | 5.3 | 159
K([γGlu-γGlu-C20 diacid])CNTATCATQRLAEFLRHSSPNFGAIPSSTNVGPETP-NH2 (disulfide 2-7 (inferred)) | 0.8 | 132
K([γGlu-C20 diacid])CNTATCATQRLAEFLRHSSPNFGAIPSSTNVGPHTY-NH2 (disulfide 2-7 (inferred)) |  | 101
K([γGlu-γGlu-C20 diacid])CNTATCATQRLA[dD]FLRHSSPNFGAIPSSTNVGSRTY-NH2 (disulfide 2-7 (inferred)) |  | 383
K([γGlu-C20 diacid])CNTATCATQRLADFLRHSSPNFGAIPSSTNVGPRTY-NH2 (disulfide 2-7 (inferred)) |  | 146
K([γGlu-γGlu-C20 diacid])CNTATCATQRLAEFLRHSSPNFGAIPSSTNVGPNTF-NH2 (disulfide 2-7 (inferred)) | 9.9 | 216
K([γGlu-γGlu-C20 diacid])CNTATCATQRLADFLRHSSPNFGAIPSSTNVGPRTY-NH2 (disulfide 2-7 (inferred), also called compound 130) |  | 162
K([γGlu-γGlu-C20 diacid])CNTATCATQRLAEFLRHSSPNFGAIPSSTNVGPHTY-NH2 (disulfide 2-7 (inferred)) |  | 172
K([γGlu-γGlu-C20 diacid])CNTATCATQRLAEFLRHSSPNFGAILSSTPVGPETY-NH2 (disulfide 2-7 (inferred)) | 5.8 | 222
K([γGlu-γGlu-C20 diacid])CNTATCATQRLAEFLRHSSNNPGAILSSTNVGPETY-NH2 (disulfide 2-7 (inferred)) |  | 5170
K([γGlu-C20 diacid])CNTATCATQRLAEFLRHSSPNFGAIPSSTNVGSHTY-NH2 (disulfide 2-7 (inferred)) |  | 425
K([γGlu-γGlu-C20 diacid])CNTATCATQRLANFLRHSSPNFGAIPSSTPVGPRTY-NH2 (disulfide 2-7 (inferred)) |  | 333
